Changes are numbered by the printed parent chain.
T1: recombinant human TL1A (human, UniProt O95150 71-251)
T1 chain: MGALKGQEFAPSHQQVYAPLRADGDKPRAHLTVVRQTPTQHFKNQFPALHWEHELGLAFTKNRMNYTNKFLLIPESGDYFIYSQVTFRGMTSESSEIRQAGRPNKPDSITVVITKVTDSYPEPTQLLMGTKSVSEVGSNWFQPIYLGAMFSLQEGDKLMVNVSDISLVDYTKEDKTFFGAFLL

T2: human IL-12 (human, UniProt P29460 23-328; P29459 23-219)
T2 sequence 1: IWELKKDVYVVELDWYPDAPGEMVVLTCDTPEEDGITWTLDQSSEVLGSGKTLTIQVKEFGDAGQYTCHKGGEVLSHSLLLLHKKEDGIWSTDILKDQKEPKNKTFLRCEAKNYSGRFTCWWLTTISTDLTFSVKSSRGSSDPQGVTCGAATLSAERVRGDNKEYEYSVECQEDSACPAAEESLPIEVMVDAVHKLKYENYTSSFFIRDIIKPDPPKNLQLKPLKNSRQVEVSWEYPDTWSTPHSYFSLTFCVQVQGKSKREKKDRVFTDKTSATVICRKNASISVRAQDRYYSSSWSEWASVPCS
T2 sequence 2: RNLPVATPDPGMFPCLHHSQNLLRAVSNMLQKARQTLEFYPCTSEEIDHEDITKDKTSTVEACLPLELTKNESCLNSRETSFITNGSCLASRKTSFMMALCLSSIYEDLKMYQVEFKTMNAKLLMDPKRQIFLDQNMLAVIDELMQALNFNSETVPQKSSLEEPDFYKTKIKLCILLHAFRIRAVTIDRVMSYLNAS

T3: human IL-23 (human, UniProt P29460 23-328; Q9NPF7 20-189)
T3 sequence 1: T2 sequence 1
T3 sequence 2: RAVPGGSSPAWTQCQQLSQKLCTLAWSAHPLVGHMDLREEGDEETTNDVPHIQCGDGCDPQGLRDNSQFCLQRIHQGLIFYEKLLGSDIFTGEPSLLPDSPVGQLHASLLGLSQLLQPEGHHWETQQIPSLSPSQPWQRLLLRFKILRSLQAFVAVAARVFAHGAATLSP

T4: recombinant human TL1A (human, UniProt O95150 71-251)
T4 construct: Homotrimeric cytokine; biotinylated with Sulfo-NHS-biotin where captured for SPR, coated unlabelled in ELISA, soluble in bioassays; also called TNFSF15
T4 chain: T1 chain

T5: full-length human TL1A on CHO-K1 cells (human, UniProt O95150 1-251)
T5 construct: whole, on cells; also called cells over-expressing human TL1A
T5 sequence (looked up): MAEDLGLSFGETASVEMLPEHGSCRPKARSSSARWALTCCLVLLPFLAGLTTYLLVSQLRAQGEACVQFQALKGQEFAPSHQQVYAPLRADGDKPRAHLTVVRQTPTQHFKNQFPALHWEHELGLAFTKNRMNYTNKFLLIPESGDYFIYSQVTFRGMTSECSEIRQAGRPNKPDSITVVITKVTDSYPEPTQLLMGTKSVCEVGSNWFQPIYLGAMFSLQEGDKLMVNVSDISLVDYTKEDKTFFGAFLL

B1: p40TL1A-0001 bispecific antibody (bispecific antibody)
heavy 1: EVQLVQSGAEVKKPGESLKISCKGSGYSFTTYWLGWVRQMPGKGLDWIGIMSPVDSDIRYSPSFQGQVTMSVDKSITTAYLQWNSLKASDTAMYYCARRRPGQGYFDFWGQGTLVTVSSASTKGPSVFPLAPSSKSTSGGTAALGCLVKDYFPEPVTVSWNSGALTSGVHTFPAVLQSSGLYSLSSVVTVPSSSLGTQTYICNVNHKPSNTKVDKKVEPKSCRKTHTCPRCPAPEAAGAPSVFLFPPKPKDTLMISRTPEVTCVVVDVSHEDPEVKFNWYVDGVEVHNAKTKPREEQYNSTYRVVSVLTVLHQDWLNGKEYKCKVSNKALPAPIEKTISKAKGQPREPQVYTLPPSREEMTKNQVSLTCLVKGFYPSDIAVEWESNGQPENNYKTTPPVLDSDGSFFLYSRLTVDKSRWQQGNVFSCSVLHEALHSHYTQKSLSLSPGK
light 1: not shown
heavy 2: QVQLVQSGAEVKKPGASVKVSCKASGYDYTYYGISWVRQAPGQGLEWMGWISTYNTGTHYAPSLQGRVTMTTDTSTSTAYMELRSLRSDDTAVYYCARESYYGSGAFRGGMDVWGQGTTVTVSSASTKGPSVFPLAPSSKSTSGGTAALGCLVKDYFPEPVTVSWNSGALTSGVHTFPAVLQSSGLYSLSSVVTVPSSSLGTQTYICNVNHKPSNTKVDKKVEPKSCEKTHTCPECPAPEAAGAPSVFLFPPKPKDTLMISRTPEVTCVVVDVSHEDPEVKFNWYVDGVEVHNAKTKPREEQYNSTYRVVSVLTVLHQDWLNGKEYKCKVSNKALPAPIEKTISKAKGQPREPQVYTLPPSREEMTKNQVSLTCEVKGFYPSDIAVEWESNGQPENNYKTTPPVLDSDGSFFLYSKLTVDKSRWQQGNVFSCSVLHEALHSHYTQKSLSLSPGK
light 2: not shown
B2: p40TL1A-0032 bispecific antibody (bispecific antibody)
heavy 1: B1 heavy 1 with L130K, V187S, R223D, R230P, Y351C, T368W, R411K
light 1: DIQMTQSPSSLSASVGDRVTITCRASQGISSWLAWYQQKPEKAPKSLIYAASSLQSGVPSRFSGSGSGTDFTLTISSLQPEDFATYYCQQYNIYPYTFGQGTKLEIKRTVAAPSVFIFPPSDEQLKSGTASVSCLLNNFYPREAKVQWKVDNALQSGNSQESVTEQDSKDSTYSLDSTLTLSKADYEKHKVYACEVTHQGLSSPVTKSFNRGEC
heavy 2: B1 heavy 2 with L135E, S190G, E228D, E235P, S361C, T373S, E375A, Y414V
light 2: not shown
B3: p40TL1A-0024 bispecific antibody (bispecific antibody, human IgG1, kappa)
heavy 1: B1 heavy 1 with R223D, R230P
light 1: not shown
heavy 2: B1 heavy 2 with E228D, E235P
light 2: not shown
B4: p40TL1A-0018 bispecific antibody (bispecific antibody, human IgG1, kappa)
heavy 1: B1 heavy 1 with R223D, R230P, T368W, R411K
light 1: not shown
heavy 2: B1 heavy 2 with E228D, E235P, T373S, E375A, Y414V
light 2: not shown
B5: p40TL1A-0021 bispecific antibody (bispecific antibody)
heavy 1: B1 heavy 1 with R230P
light 1: not shown
heavy 2: B1 heavy 2 with E235P
light 2: not shown
B6: TL1A-0372 monovalent bispecific antibody (bispecific antibody, human IgG1, kappa)
heavy 1: B1 heavy 2 with E228D, E235P, Y356C, T373W, E375L
heavy 2: not shown
light: not shown
B7: TL1A-0368 (bispecific antibody)
heavy 1: B1 heavy 2 with E228D, E235P, Y356C, T373W, E375L
heavy 2: QVQLVQSGAEVKKPGASVKVSCKASGYTFTSYGISWVRQAPGQGLEWMGWISAYNGNTNYAQKLQGRVTMTTDTSTSTAYMELRSLRSDDTAVYYCARESYYGSEAFRAGMDVWGQGTTVTVSS
light: not shown
notes: not shown: human IgG1 constant region with effector-minimizing, KiH and LS mutations
B8: TL1A-0370 (bispecific antibody)
heavy 1: B1 heavy 2 with E228D, E235P, Y356C, T373W, E375L
heavy 2: B7 heavy 2 with Y101S
light: not shown
notes: also called TL1A-0370 MBsAb; not shown: human IgG1 constant region with effector-minimizing, KiH and LS mutations
B9: [xTL1A]-0360 (antibody, human IgG1, kappa, V domains shown)
VH: not shown
VL: DIQMTQSPSSLSASVGDRVTITCRASQSVSSYLAWYQQKPGKAPKLLIYDASNRATGVPSRFSGSGSGTDFTLTISSLQPEDFATYYCQQRSNWPWTFGQGTKVEIKR
notes: bivalent disabled antibody, IgG1 effector-function-minimized/kappa

Biological target: T1, recombinant human TL1A
Test: cell-based or functional assay

NF-κB assay IC50 (TF-1 reporter cells) | NF-κB assay, Bioactivity relative to TL1A-0372 | Binder
0.0911 nM | 0.9 fold | B1
0.131 nM | 1.3 fold | B2
0.106 nM | 1 fold | B3
0.105 nM | 1 fold | B4
0.0509 nM | 0.5 fold | B5
0.102 nM | 1 fold | B6

biological target: T2, human IL-12; test: cell-based or functional assay

KIT-225 STAT4 assay IL-12, Bioactivity relative to p40-0003 | KIT-225 STAT4 assay IL-12 IC50 | Binder
1.7 fold | 5.7 nM | B1
1.4 fold | 4.6 nM | B2
1.3 fold | 4.3 nM | B3
2 fold | 6.6 nM | B4
0.9 fold | 3 nM | B5

biological target: T3, human IL-23; test: cell-based or functional assay

KIT-225 STAT3 assay IL-23, Bioactivity relative to p40-0003 | KIT-225 STAT3 assay IL-23 IC50 | Binder
2.4 fold | 3.9 nM | B1
2.3 fold | 3.8 nM | B2
2.2 fold | 3.6 nM | B3
2.1 fold | 3.4 nM | B4
1.4 fold | 3.4 nM | B5

Biological target: T4, recombinant human TL1A
Test: SPR, recombinant human TL1A

Kd | koff | kon | Binder
0.242 nM | 4.61e-05 s⁻¹ | 191000 M⁻¹ s⁻¹ | B7
0.303 nM | 5.73e-05 s⁻¹ | 190000 M⁻¹ s⁻¹ | B8

Biological target: T4, recombinant human TL1A
Test: cell-based or functional assay

NFκB Bioassay IC50 | Binder
1.56 nM | B7
1.46 nM | B8

biological target: T5, full-length human TL1A on CHO-K1 cells; test: flow cytometry on CHO-K1 cells stably expressing full-length human TL1A, PE anti-human IgG, median fluorescent intensity
Experimental: A cell binding assay was performed to examine if the panel of [xTL1A] bivalent antibody variants could bind to human TL1A over-expressed on the cell surface. […] [xTL1A] bivalent antibody variants were incubated with cells on ice for 30-60 minutes at a concentration of either 1 μg/mL or 20 μg/mL. Cells were pelleted by centrifugation at 1500 RPM for 5 minutes at 4° C. and supernatant was discarded by aspiration. The cells were washed three times with DPBS with 4% FBS buffer as described. Cells were resuspended in 100 μL of PE-anti-human IgG (Life technologies Catalog number H10104) diluted 1:500 in DPBS with 4% FBS buffer and incubated on ice for 15 minutes. Cells were washed three times as described and resuspended in 200 μL of DPBS with 4% FBS buffer, then run on a flow cytometry instrument.

binding result | Binder
no binding (tested: 20 ug/mL) | B9

biological target: T6, human serum albumin (human, UniProt P02768 25-609); test: direct binding ELISA on plate-coated HSA (1 ug/mL), anti-human IgG-Fc HRP, OD450
T6 construct: also called HSA
Experimental: (§1) For the direct binding ELISA method to HSA or BSA, 96-well high binding plates (Corning, product number 3590) were coated with 1 μg/mL recombinant HSA or BSA in 100 μL/well in PBS overnight at 4° C. Plates were then blocked in PBS+0.02% casein solution and washed with PBS+0.05% Tween-20 following standard ELISA protocol. […] Plates were washed with PBS+0.05% Tween-20 following standard ELISA protocol, and goat anti-human IgG-Fc HRP conjugated secondary antibody (Pierce, #31413) diluted to 1:10,000 in assay buffer was added to plates and incubated for 1 hour at room temperature. Next, the plates were washed with PBS+0.05% Tween-20 following standard ELISA protocol, and then TMB substrate (BioFX Laboratories, catalog number TMBW-0100-01) was added to plates.
(§2) Reactions were stopped after approximately 5 minutes by adding 0.18 M ortho-phosphoric acid to each well and absorbance was read at 450 nm. […] For this method, samples diluted to 0.3 mg/mL were dispensed into the sample tray of a MicroCal VP-Capillary DSC with Autosampler (Malvern Instruments, Inc.), equilibrated for 5 minutes at 10° C. and then scanned up to 110° C. at a rate of 100° C. per/hour. A filtering period of 16 seconds was selected. Raw data was baseline corrected and the protein concentration was normalized. Origin Software 7.0 (Origin Lab Corporation, Northampton, MA) was used to fit the data to an MN2-State Model with an appropriate number of transitions.

binding result | Binder
no binding (tested: 1e-6 M) | B7
no binding (tested: 1e-6 M) | B8

biological target: T7, bovine serum albumin (bovine, UniProt P02769 25-607); test: direct binding ELISA on plate-coated BSA (1 ug/mL), anti-human IgG-Fc HRP, OD450
T7 construct: also called BSA
Experimental: as §1, §2

T7 sequence (P02769 25-607 limits assumed): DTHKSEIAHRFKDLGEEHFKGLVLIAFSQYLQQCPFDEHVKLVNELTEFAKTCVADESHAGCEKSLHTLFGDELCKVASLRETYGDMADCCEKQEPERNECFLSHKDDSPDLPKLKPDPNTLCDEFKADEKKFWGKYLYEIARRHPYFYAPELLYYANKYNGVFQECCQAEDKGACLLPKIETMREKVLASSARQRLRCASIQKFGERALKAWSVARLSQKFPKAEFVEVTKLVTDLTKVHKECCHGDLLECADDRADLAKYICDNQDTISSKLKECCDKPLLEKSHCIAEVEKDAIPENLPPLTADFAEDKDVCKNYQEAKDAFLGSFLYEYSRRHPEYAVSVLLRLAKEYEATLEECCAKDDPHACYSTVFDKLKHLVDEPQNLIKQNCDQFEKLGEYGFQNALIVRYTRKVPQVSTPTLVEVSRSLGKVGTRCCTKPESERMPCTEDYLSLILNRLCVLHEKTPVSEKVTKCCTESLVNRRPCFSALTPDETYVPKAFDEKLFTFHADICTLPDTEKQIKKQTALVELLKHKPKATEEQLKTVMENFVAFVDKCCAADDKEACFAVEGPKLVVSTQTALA

binding result | Binder
no binding (tested: 1e-6 M) | B7
no binding (tested: 1e-6 M) | B8
